biological target: T1, HLA-A2 molecule (human); assay: T2 cell binding assay, flow cytometry with anti-HLA-A2 mAb
T1 construct: also called HLA-A2 on T2 cells (174CEM-T2; T2A2 cells)
Method: (§1) In this assay, increased stability (accumulation) of HLA-A2 molecules on the surface of T2 cells as a consequence of peptide binding is measured by increased binding of antibody directed against HLA-A2 molecule. Briefly, 1×10⁶ cells in serum-free Iscove's modified Dulbecco's complete medium were incubated with peptides at a concentration of 50 μg/ml in 24-well culture plates at 37° C. in 5% CO₂. Flow cytometry for peptide binding was performed using T2 cells and single-color analysis. After cells were washed three times in DPBS, as described above, they were incubated for 1 h with a 1:100 dilution of HLA-A2—specific MAb (One Lambda, Inc.) per 10⁶ cells. UPC-10 (Cappel/Organon Teknika) was used as isotype control. The cells were then washed three times and incubated with 1:100 dilution of FITC-labeled anti-mouse IgG (BD Biosciences). Analysis was conducted with the FACScan, as described above. Cells were maintained on ice during all cell preparation and staining.
The primary amino acid sequence of human MUC-1 was analyzed for consensus motifs for novel HLA-A2 binding peptides.

Molecule | binding result
YRPGENLNL [NCA peptide, YRPGENLNL] | no binding (tested: 50 µg/ml peptide)

biological target: T1, HLA-A2 molecule; assay: T2 cell binding assay: flow cytometry of surface HLA-A2 with anti-HLA-A2 mAb after incubation with peptide (50 µg/ml)
Method: as §1

Molecule | T2 binding (relative fluorescence)
ATWGQDVTSV (Synthetic 10-mer from the non-VNTR region of MUC-1) [MUC-1 peptide P-92 (native), ATWGQDVTSV] | 510 relative fluorescence values
ALWGQDVTSV (also called L-93; MUC-1 peptide) [MUC-1 agonist peptide P-93L, ALWGQDVTSV] | 821 relative fluorescence values
AIWGQDVTSL [MUC-1 peptide analogue I-93/L-101] | 280 relative fluorescence values
AMWGQDVTSL [MUC-1 peptide analogue M-93/L-101] | 325 relative fluorescence values
ALWGQDVTSL [MUC-1 peptide analogue L-93/L-101] | 736 relative fluorescence values
AMWGQDVTSV [MUC-1 peptide analogue M-93] | 723 relative fluorescence values
AIWGQDVTSV (also called I-93) [MUC-1 peptide analogue P-93I] | 823 relative fluorescence values

biological target: T1, HLA-A2 molecule; assay: as above; remark: another data set of the same source
Method: as §1, with “staining. […]” for “staining.”

Molecule | T2 binding (relative fluorescence)
LQRDISEMFL [MUC-1 peptide P-1069, LQRDISEMFL] | 433
WGQDVTSVPV [MUC-1 peptide P-94, WGQDVTSVPV] | 591
ATWGQDVTSV (Synthetic 10-mer from the non-VNTR region of MUC-1) [MUC-1 peptide P-92 (native), ATWGQDVTSV] | 740
VLVALAIVYL [MUC-1 peptide P-1169, VLVALAIVYL] | 369
TISDVSVSDV [MUC-1 peptide P-1135, TISDVSVSDV] | 422
ALLVLVCVLV [MUC-1 peptide P-1162, ALLVLVCVLV] | 431
LAFREGTINV [MUC-1 peptide P-1105, LAFREGTINV] | 461
REGTINVHDV [MUC-1 peptide P-1108, REGTINVHDV] | 482
GTQSPFFLLL [MUC-1 peptide P-4, GTQSPFFLLL] | 467
TLASHSTKTD [MUC-1 peptide P-1104, TLASHSTKTD] | 442

biological target: T1, HLA-A2 molecule; assay: T2 cell binding assay: flow cytometry of surface HLA-A2 with anti-HLA-A2 mAb; negative control

Molecule | T2 binding (relative fluorescence) (relative fluorescence values)
CEA CAP-7 (HLA-A3 binding peptide) | 200
